From patent publication US20160040149A1, “Compositions Having Dicamba Decarboxylase Activity and Methods of Use” (priority 2013, published 2016)
Positions count from the first letter of the chain named.

B1: 50 (protein, listed as Streptomyces sp.)
chain: MARIVTLEEHWTDPAVTAAGMPNLLDHVPGYAAAFDPDTGMPYPRHPELLEDLGAARIADMDRHGITTQVLSLVNTFLPADVAPRLTAAANDAMAAAVEAFPGRFAAFATLPTAVPGAAADELRRCVGELGFVGTMIMGRTDGEFLDQPRFDPILRAASDLSVPVYLHPAPPPVAVSEASYAGGLSPAVSAAFRLAAWGWHQETAVHLLHLVLAGVLDRYPGLQFVLGHWGEFIPFYLDRLDESMPRRMTGLDRTFREYFRDNVFITPSGMFSQAQLRYCADTVGTDRIIHSVDFPMLGNEGAVSFLTDSHLSREDQEKIAHGNADALLGLG
B2: 51 (protein, listed as Mycobacterium gilvum)
chain: MARVIAIEEHYAHPGLQPAEALANLRKHPQLARIQDKLEDLGAGRLADMDAAGIDMQVLSHTVPGAEALPAAQAVDVVRQTNDDLAEVIAAHPDRFAGFAALPMRDPQAAATELQRAVGTLGFCGAMINGLIEGRFLDHPDFTPLLSTAADLGVPLYLHPSFPPPQVAQIYFGGLPPVLADLLATAGWGWHAETALHVLRLISTGVFDRLPELRVIVGHMGEMIPFALARIDTVLSPMTELRQPVAQYFQTNVWFTTSGYTTFPPLQCALSTVGIDRLIFSVDYPYTDNASARALLDTAPISPVDREKLAHATVEALLRV
B3: 52 (protein, listed as Streptomyces sp.)
chain: MAKIIALEEHFSDPAVAKAGAARAQALSPGFAASYSPASGLPYSPSPEVLENLAEKRLADMDAGGITMQVLSGLSAQTVPADVAPALVAGSNDKAAAAVRAHPDRFAAFAALPTAAPEAAVAELDRSVNELGFVGTLIMGRTEGEFLDAPRFEPILARAAALKVPVFLHPGVPPREITDSNYAAGLPTGIGTRLQTAAWGWHQETAVHFLHLVHSGVLDRYPDLQFILGHWGETIPFYLDRVDEALPQRATGLDRSFHEYFRENVYLAPSGMWSQAQLRFCLETFPLERIVFAVDYPFIGNEGAVPFLEKAELPEADKRKIAHENAERLLGL
B4: 53 (protein, listed as Granulicella tundricola)
chain: MARTITLEEHFVTDSFLRATGAYDKPAPPWLAQLQPKLLDLGDGRIAAMDEAGIDLQVLSLAALGFDALDAATATPLVHDINDELAAAVRANPTRLAAFASLALKDPQSAARELERAIQKLGFRGVLLDGTTDGLFLDDPRFTPVFEAAVALNVPIYLHPAPPPESVFDTYFTGLPEGVGQMLSIAGWGWHAETALHTLRLITNGVFDRYPTLQLIIGHMGEMLPMALARTSKALSHAARLRQPVAAYFQSNIHLTTSGYFTQPPLRCALDVVGIDRLMFSIDYPFSANTLGRDYLTELEQTLTPEDLAKLIHRNAESLLNLS
B5: 54 (protein, listed as Streptomyces sp.)
chain: B3 chain with S75G, V128I, D223G, T234M, F285V
B6: 55 (protein, listed as Serratia sp.)
chain: MAKIICLEEHTLDKALVMASMPAALEQAPFLSDWGKTVTDGNLPDRSRPQIEKNDLINIKGADIGRGRLDDMDVAGITMQVLSVGGFPHLISAAEGVDLNRAANDRLADAVNAHPDRFAAFATLPWAQPDSAEKELERAVKELGFKGALLNGRPSTHFLDHPDYDGLLARFNALGVPLYLHPGLPVRSVQQAYYGGFSDEVTARLSMFGWGWHHEAGIHLLRLILSGAFDKYPNLQVISGHWGEMLPFWLQRLDDSLPQAATGLRRTIAQTFKEQVYVTPSGMLTLPHFQFIYALLGAERIIFSVDYPYQTLDGVKAFIQSLPVPEEAKEAIAFRNAERLLGLTS
B7: 56 (protein)
chain: MAKIICLEEHYLDSELGRACMPVALEQAPFLGDWGKTVADGHNPDRSRPQIEKNALINAKGADLGSRRLRDMDEAGITLQILSVGGFPQLAPEDEAVTLNTAANDRLAEAVRNHPDRFAAFATLPWAQPKDAENELVRAVEKLGFKGALLNGRPSSCFLDHPDYDSLLSRFNKLNVPLYLHPGLPLKSVQQAYFTGFSAEVNARLSMFGWGWHHEAGIHLLRLMLSGAFDKYPNMQVISGHWGEMLPFWLQRLDDSLPLAATGLSRTLTRTFQEHVYVTPSGMLTLPHFKFIYELMGAERILFSVDYPYQTLDGVKTFIDSLPVNKAEKEAIAFRNAERLLGITA
modifications: Enterobacter aerogenes
B8: 57 (protein)
chain: MAKLICVEEHVLDPAVGAATQSLVRAEAPYLPDWGSRVLDGRHVADRSRPHVIAPSESARKALEMGEPRLADMDAASIDMQVLSYGGFPQLLPAAQAIDLNRAANDKLALAAQAHPARFAGFATLPWQAPEAAARELERAVKQLGLKGALINGRPGDTFLDDARYAPILAAFDELKVPLYVHPGLPLPAVQAPYYGGFERELSARLAMFAWGWHNEAGIQVVRMLLAGVFDRHPRLQLISGHWGEMVPFFLQRLEDSIPQEASGLQRPIVQTYREHVYISPSGMFTLPHFQFIHALMGAQRILYSIDYPYQSLDGARAFIERLPISDTDKALIAHRNAERLLHL
modifications: Collimonas fungivorans
B9: 58 (protein)
chain: MARVIALEEHYATTEFLRGPGTWLASRPGIVEPAGDLGDGRIAAMDQAGVDLAVLSLAAPGVEQLDPDDAVRLARDCNDQLAAAVRRYPDRLAGFATVPTSAPDRAADELERAVRGLGFPGAVINGHSRGRYLDDPFFEPVLARAAELQAPIYLHPTIPPAGVIESSYAGFAEPVTFALATVGWGWHINTATHALRMILGGVFDRHPSLQMIIGHMGEATSFMLPRFDATLKPELTGLNHPVSSYLRENFHYTFANFNDHATYANLVAQVGIERVAFSADYPFGSMVDARAFLDGLPLSDDERAAISHRNAEKLLGL
modifications: Mycobacterium colombiense
B10: 59 (protein)
chain: MAPSVIDAHAHFLPGSLVTALRSRSDAPDIRTDSNGGESFGIYRTRMPYGRTYDALDVRLARMDELGVDRQILSLPGLFGIDSRPVSQALPLVRAFNDGVADLVRKHPDRFSGIAALPLADLDAAQEEYRRARGDLGLSGLILPGDTFVSVAAAERVRPLFELAATIGGLIFVHPGPLPDETGSAVDAPAPHTDSVVHRRVTVDIQNRMTEVMVTLALTDFLAPYPSVPVQVANLGGSLPFVIERMDHVYALRNPEAPPPSLSLRSLYVDAASLGPRAIALAAEVYGADRVLFGSDYPIFDDGRCLDAVRQTRLSPDARALIAGGNAARMLTQT
modifications: alpha proteobacterium
B11: 60 (protein, listed as Catenulispora acidiphila)
chain: MARGFVRTAVVPGFWDAGWRGAGQPGGMRVDVHAHLFPAAYLDLLDDFRQDGGVGTREVRALGGGDGERELRLRLAAMDAVGVDVQLLSTCPQGPYTGDPTAAVEAARCANVALAQTVAQYPERLRALAALPLPHILASVDELNRAMEQDGMLGAAVGTSILGRPLSHPDFEPLFAALNRRKGVLFVHPIGESAGSPLMQASKLDRVIGYAAEVSTAILQLFQAGLTVKYPDIRIIAPHMGGYLPFLIQRLDRHRDWYLPKDAPSAGQLMRGIAYDTANPLPAALRLTAEVVGPERLLLGTDYPFEQGPSLRDHIEYILAAGLPEAQAKMIVDVNAADFLDMRSGAEQPPV

Assay: Saturation mutagenesis of SEQ ID NO:109: dicamba decarboxylation activity of point mutants (CO2 released), fold of backbone (Tables 7, 8, Megatable 1)
Conditions: decarboxylation activity (CO2 released) of point mutant vs unmutated backbone protein; backbone SEQ ID NO: 109

Molecule | Fold Activity
B1 | 1.7 fold
B2 | 1.7 fold
B3 | 1.9 fold
B4 | 1.6 fold
B5 | 1.4 fold
B6 | 1.5 fold
B7 | 1.3 fold
B8 | 2 fold
B9 | 1.5 fold
B10 | 0.9 fold
B11 | 1.6 fold
